Measured values taken from the supplement of paper PMC10126150.
± gives the standard deviation of the averaged measurements.

Test system: ATP
Assay: switch fluorescence ratio, 500 uM ATP over buffer (Cy3 cluster intensity, sum of 5 cycles each) (fold (ratio)); higher = stronger signal-on switching upon ATP binding; sequences stand for … in TCGTCGGCAGCGTCAGATGTGTATAAGAGACAGTTTTTTTTTTTTTTTTTTTTTTTTT…TC
Conditions: aptamer strand: ATP DNA aptamer (quencher-CACCTGGGGGAGTATTGCGGAGGAAGG + anchor), 100 nM annealed; ATP concentration: 500 uM
Summary of the method: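 Exposure to 500 uM ATP lasted 15 min at 22 °C before imaging, and a selection-buffer image was taken beforehand, for Cy3-labelled switching-strand clusters on a modified Illumina MiSeq flow-cell annealed to 100 nM quencher-labelled ATP aptamer. Five buffer/ATP cycles were run with NaOH stripping and re-annealing between them. The fluorescence ratio per cluster is summed target-cycle over summed buffer-cycle Cy3 intensity, averaged per switch-domain sequence. Clusters outside 100-1000 RFU were excluded.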

Row | Sequence | switch fluorescence ratio
1 | ATAATATGGT | 0.9838 ± 0.0036
2 | ATAATATTGG | 0.995 ± 0.013
3 | ATAATCCTGG | 0.987 ± 0.011
4 | ATAATCGGGA | 0.994 ± 0.034
5 | ATAATCTCTA | 0.9907 ± 0.0094
6 | ATAATGAGTC | 0.961 ± 0.013
7 | ATAATGGGTA | 0.97 ± 0.025
8 | ATAATGTATC | 1.03 ± 0.018
9 | ATAATGTGCA | 1.024 ± 0.0071
10 | ATAATGTTAC | 1.09 ± 0.029
11 | ATAATTCATG | 0.981 ± 0.029
12 | ATAATTCGTA | 0.96 ± 0.024
13 | ATAATTGTTC | 0.99 ± 0.031
14 | ATAATTTGCG | 0.9814 ± 0.0073
15 | ATACAAATTA | 1.01 ± 0.027
16 | ATACCTGAGC | 1.113 ± 0.0041
17 | ATACCTTA | 1.02 ± 0.038
18 | ATACGAACGG | 1.48 ± 0.015
19 | ATACGAAGGA | 1 ± 0.028
20 | ATACGGGGTG | 1.1 ± 0.035
21 | ATACTATCTT | 0.996 ± 0.019
22 | ATACTATTGT | 1.029 ± 0.0037
23 | ATACTCGGTA | 0.997 ± 0.023
24 | ATACTGACAT | 1.2 ± 0.053
25 | ATACTTTGCT | 1 ± 0.034
26 | ATAGAACTAG | 1 ± 0.011

Row | Sequence | switch fluorescence ratio
27 | ATAGAAGAG | 0.978 ± 0.017
28 | ATAGAATGGG | 0.9928 ± 0.0072
29 | ATAGACGTGT | 1.02 ± 0.092
30 | ATAGAGAAGC | 1.03 ± 0.025
31 | ATAGAGCCTA | 1.03 ± 0.02
32 | ATAGAGGAGT | 0.998 ± 0.032
33 | ATAGAGGTAG | 0.976 ± 0.017
34 | ATAGAGGTGG | 0.9979 ± 0.0022
35 | ATAGATAACG | 1 ± 0.035
36 | ATAGATAGGT | 0.99 ± 0.034
37 | ATAGATAGTG | 0.959 ± 0.015
38 | ATAGATCTGA | 1.03 ± 0.084
39 | ATAGATGGGG | 1.01 ± 0.018
40 | ATAGCAAAAT | 1.07 ± 0.13
41 | ATAGCAGATG | 0.991 ± 0.046
42 | ATAGCAGGGG | 1.11 ± 0.082
43 | ATAGCAGTCG | 1.04 ± 0.077
44 | ATAGCAGTTT | 1.02 ± 0.013
45 | ATAGCCTGGT | 0.978 ± 0.018
46 | ATAGCTTTGA | 1.02 ± 0.0014
47 | ATAGGAAATA | 1.06 ± 0.035
48 | ATAGGAACGC | 0.995 ± 0.026
49 | ATAGGAAGGG | 0.996 ± 0.019
50 | ATAGGACTGA | 1.03 ± 0.023
51 | ATAGGAGAGC | 1.044 ± 0.0021
52 | ATAGGAGCGT | 0.979 ± 0.038

Row | Sequence | switch fluorescence ratio
53 | ATAGGAGGGA | 1.01 ± 0.017
54 | ATAGGAGGTC | 1.01 ± 0.013
55 | ATAGGATGCC | 0.999 ± 0.019
56 | ATAGGCGAAA | 0.986 ± 0.022
57 | ATAGGCGCGC | 1.04 ± 0.014
58 | ATAGGCGTTT | 0.975 ± 0.018
59 | ATAGGGACAG | 1.012 ± 0.0078
60 | ATAGGGAGTG | 0.996 ± 0.043
61 | ATAGGGCGGC | 1.012 ± 0.0038
62 | ATAGGGCTGG | 0.968 ± 0.024
63 | ATAGGGGAAG | 1.01 ± 0.033
64 | ATAGGGGGTC | 0.988 ± 0.047
65 | ATAGGGGGTG | 1.03 ± 0.034
66 | ATAGGGGTGT | 1.01 ± 0.062
67 | ATAGGGTACG | 1.06 ± 0.022
68 | ATAGGGTCGT | 0.998 ± 0.011
69 | ATAGGGTGAT | 1.03 ± 0.021
70 | ATAGGGTTGG | 0.996 ± 0.049
71 | ATAGGTAGCG | 1.01 ± 0.023
72 | ATAGGTCAGG | 1.026 ± 0.0022
73 | ATAGGTCTTC | 0.983 ± 0.059
74 | ATAGGTGCTT | 1.131 ± 0.01
75 | ATAGGTGTGG | 1.02 ± 0.035
76 | ATAGGTTACG | 1.21 ± 0.25
77 | ATAGGTTAGA | 1.06 ± 0.14
78 | ATAGGTTCGG | 0.968 ± 0.021

Row | Sequence | switch fluorescence ratio
79 | ATAGGTTGGG | 0.996 ± 0.03
80 | ATAGTAACCG | 0.997 ± 0.083
81 | ATAGTACGTG | 1.01 ± 0.024
82 | ATAGTAGGCT | 0.994 ± 0.011
83 | ATAGTCGGGC | 0.99 ± 0.022
84 | ATAGTGATCG | 0.994 ± 0.042
85 | ATAGTGGAGG | 1.01 ± 0.025
86 | ATAGTGGTGG | 1.01 ± 0.052
87 | ATAGTTATCT | 1.03 ± 0.026
88 | ATAGTTCAGC | 0.9822 ± 0.0058
89 | ATAGTTGAGG | 0.981 ± 0.02
90 | ATAGTTTACT | 1.01 ± 0.024
91 | ATAGTTTGAG | 1.01 ± 0.018
92 | ATAGTTTGCC | 0.994 ± 0.043
93 | ATAGTTTGGA | 0.947 ± 0.017
94 | ATATAATAGT | 0.991 ± 0.015
95 | ATATAATCAA | 0.98075 ± 0.00037
96 | ATATACGGGG | 1.04 ± 0.02
97 | ATATAGAGTT | 1.02 ± 0.082
98 | ATATAGGCTG | 1.01 ± 0.018
99 | ATATAGGGAT | 1.021 ± 0.007
100 | ATATAGGGTG | 1.09 ± 0.019
101 | ATATAGTCCT | 0.9714 ± 0.0023
102 | ATATAGTTTT | 0.953 ± 0.011
103 | ATATATAGTC | 1.02 ± 0.025
104 | ATATATATAT | 1.01 ± 0.012

Row | Sequence | switch fluorescence ratio
105 | ATATATCGTT | 0.981 ± 0.024
106 | ATATATGGCT | 0.999 ± 0.035
107 | ATATATTTCG | 1.01 ± 0.017
108 | ATATCACGCT | 1.03 ± 0.023
109 | ATATCAGACT | 0.99 ± 0.015
110 | ATATCAGCGC | 1.03 ± 0.018
111 | ATATCATCTC | 1.002 ± 0.0063
112 | ATATCCCCCA | 1.15 ± 0.11
113 | ATATCCCTGG | 1.11 ± 0.013
114 | ATATCCGTTT | 0.974 ± 0.066
115 | ATATCGTTCG | 1.02 ± 0.054
116 | ATATCTATAG | 0.958 ± 0.018
117 | ATATCTGAGT | 1.03 ± 0.016
118 | ATATCTTTCT | 1.006 ± 0.0023
119 | ATATCTTTTT | 0.983 ± 0.037
120 | ATATGAAAAT | 1.01 ± 0.032
121 | ATATGAAGAA | 0.968 ± 0.01
122 | ATATGACGCT | 1.04 ± 0.09
123 | ATATGCGGGG | 0.949 ± 0.011
124 | ATATGGCCGT | 0.994 ± 0.023
125 | ATATGGGCGG | 0.98 ± 0.016
126 | ATATGGGGGA | 0.99 ± 0.038
127 | ATATGGTAAA | 0.958 ± 0.015
128 | ATATGTAGAG | 1.05 ± 0.046
129 | ATATGTCGGT | 0.963 ± 0.013
130 | ATATGTCTAG | 0.989 ± 0.01

Row | Sequence | switch fluorescence ratio
131 | ATATTAAAAT | 1.02 ± 0.021
132 | ATATTAAGGC | 0.983 ± 0.017
133 | ATATTAGGTT | 0.998 ± 0.018
134 | ATATTGACCG | 1.03 ± 0.022
135 | ATATTGATAG | 1 ± 0.0064
136 | ATATTGGGCC | 0.997 ± 0.017
137 | ATATTGTACG | 1.03 ± 0.022
138 | ATATTGTAGT | 0.9969 ± 0.0089
139 | ATATTGTGGG | 0.987 ± 0.023
140 | ATATTGTGTG | 1.01 ± 0.048
141 | ATATTTATCG | 1.01 ± 0.033
142 | ATATTTATTT | 1.015 ± 0.009
143 | ATATTTCATG | 1.006 ± 0.0091
144 | ATATTTCTAA | 1.0113 ± 0.00013
145 | ATATTTCTGG | 0.986 ± 0.018
146 | ATATTTCTGT | 0.981 ± 0.019
147 | ATATTTGCGA | 0.973 ± 0.022
148 | ATATTTTAGT | 1.03 ± 0.031
149 | ATATTTTATT | 1.02 ± 0.031
150 | ATATTTTCGC | 1.04 ± 0.03
151 | ATATTTTTGT | 1.03 ± 0.014
152 | ATCAAAGTTT | 0.994 ± 0.042
153 | ATCAAATAGT | 1.01 ± 0.037
